Test results reported in paper PMC4424342.

target: GST-Shp2 SH2 T73D/S189D; assay: pull-down; glutathione-Sepharose bead-bound bacterial GST-Shp2 SH2 proteins incubated with lysates of HEK293T cells transfected with the ligand and constitutively active Src; 1 h at 4 °C; bound proteins immunoblotted for phosphotyrosine (4G10) and GST; band intensities quantified with ImageJ

fold reduction of binding against the wild-type SH2 domains [fold] | Substance
5.7 | Venus-GAB1, tyrosine-phosphorylated (from UniProt Q13480 1-694) (natural protein)
2.7 | Venus-GAB2, tyrosine-phosphorylated (from UniProt Q9UQC2 1-676) (natural protein)
1.7 | GFP-PKD1, tyrosine-phosphorylated (from UniProt Q15139 1-912) (enzyme)
